Source: the DeepSol protein solubility set

Test: soluble on expression in E. coli; label from the status in PepcDB or PDB records

Sequence	soluble on expression in E. coli
MGSDKIHHHHHHMVAQLETPSANSSLSLPYPIEGLVQVFTSSHRNFFTSVMGQALRIAGQGTPVLIVQFLKGGIKQGQDRPIQLGQNLDWIRCDLPRCIDTPHLDESENQALQKLWLHTQQVVDEDKYSLVVLDELSLAIHFGLIPESDVLAFLAKRSPHVDIIFTGTEMPQSILDVADQITEIRRSHCP	not soluble
MGSDKIHHHHHHMVIAVRRILIREEYCMGCKLCEINCVAAQVGTGNLIKVYRYVPELPEPNVIVEEHDYVTFALQCRNCDDPSCLKACMTGAMHRDPKTGAIRVNQEKCVGCWMCVMACPFGVIRRNTKEKKVASKCDLCADRGTPGCVEGCPNEALVLVEVRE	not soluble
MGSDKIHHHHHHMVKLLLICLATIVMISCGSEQEKLTVYIPDTCTDTLQYEIYLPEEEGLNIFYDLCVTDSFCAFLDTRNDTLLKIFTATIPPALVGLGMKGEGPDDFLFPFFEKSIGREGKGKLSFIELNSWNKKIVAIHSAASPAPVAVSVVEAQQLPEMPVVRDYNETDSCVYGIDVDMQHGLFFIYDKHTARVKTVDYHRDIRSGYPEGHLSYLYESCLMVNQDAKAACMGLLNLNSLCFYDLKGNLMKEIVIGKELKSPEYDPEFLDFPNAPKYFISLCGTPNYLYALYNGFPGTSGKSKIMVFTWQGAPVAIYQTDVKLERIAVAPSGRYVLGLNITEEGGSDVLKFEL	not soluble
MGSDKIHHHHHHMVMEVIKVKYKAFDVGAVSYNTDTQMGSFEYFPSFIKTGIELSPIKMPLAKNIYSFPQLDQNTFKGLPGLIADSLPDDFGNAVMNAWIASQGKSTSDITPLQRLQYTGMRGMGALTYSPATKRKNLNASQPIHIESLVSIAQDVLDKRQQFSVDLENNGQEDKEAMMSLMSVGMSAGGARPKAVLAFNNDLTQVRSGQTDAPEGFTHYLMKFDGVSEHNKNQETFGDPMGYGAMEYTYHILAKECGIDMMPCHLLNEGKRRHFITERFDRNGNDKIHVQTLNGLEHVSYKQIGSYSYAELFNTARKLKLSPDDAMQLFKRMVFNVISRNHDDHAKNFGFMLDKDHKWQLAPAYDLAYSYKPDSHWVSKHWMTLNGKQDNFTRDDFYSFEKLSPIFSKRKIDDVLNQTIEAVSQWDKYAAEHAVPNSLIKEISQNLRLFL	not soluble
MGSDKIHHHHHHMVMGDITRIDTVQQYCDLFEVEALHPLVSVVNCYEVQPIRHSKKLYNIYAVLLKDTDCGTMNYGRSLYDYEKGSMLFIAPGQVMGSDDDGSLHQPAGWALMFHPELLRGTSLAHIIKEYSYFSYNANEALHLSEQERKVVIECINNVAEELRHPIDKHSRSLIIDTMKLLLDRCIRFYDRQFITRENANNDLLARFELLLNNYYHSALPTSKGIPTVQYCADQLCLSTNYFSDLVKKETGMSAIKHIQQKIMDIAKERIMNTQKSISQISDEMGFQYPQHFTRWFKKMEGCTPNEYRNEIIKQAIN	not soluble
MGSDKIHHHHHHMVNQNQWRQWGCKVIDIEKAALEHLYQFVDSDAFSQACELILQCKGKVIVMGMGKSGHIGNKISATLASTGTPAFFVHPGEASHGDLGALAKEDIILAISNSGESSEILTLLPVIQRMGVPVIAITGKPESNMAKLAKIHLCIQVPEEACPLGLAPTSSTTATLVMGDALAVALLQAKGFTQDDFALSHPGGSLGRKLLLKVSDVMHQDDRLPCVPHDICITEALYEISKKGLGMTAVVDANQCLVGIFTDGDLRRVIDAEVNLRTTPIEQVMTKNCVTTTAGILAAQALQVMESKNINGLIVVNEQQQPIGALNMLDMVKAGVI	not soluble
MGSDKIHHHHHHMVREPASTLLPPTSPATPAPHRLLIGRRGMVPTGANVIWKIQSGLVRSSTWGEEGDMISLGLWGPGDLIGRPLSCLDPYELECLTAVEVVAVSDPALESHESLVRSLRYTERLLSITRLRRAEAKLASLLGWIGERFGQPGATGWEIDLRRIPLTHQVIAELSGSTRVTTTRLLGEFRQAGRIHRRDRALIVRYPETLYPPARLSA	not soluble
MGSDKIHHHHHHMVRLAVVGLGKMGLSHYAMINAHPDVKVEAVCDSTGYVLDVLNKYTGVRTYTDFDVMLRDIELDAVIIATPSRSHGQMVEVALNENLHVFCEKPFCLDITEGERLARIAAERGLVNQVGYHNRFVGAFQEVKRLLDAGAIGAVTHVLAEAYGPVVLKPKGSTWRTQRTEGGGCLYDYAAHPINLVNWYLGAPQSVGGSVLNKIFSKDTEDEVFSTLYYEEGKSVQISVNWSDESYRKMTTKVTIWGTQGRIYADRQECQVYIRDGVNIPAGYQRGWNVRYTTDLTEAVWFYLRGEEYSAQLDYFVRCIEEKEGGGNINSFEEAVITDRVMSMMVADAEKRPPVTSGIAPRQAPGKKFGLLFGGRKAVS	not soluble
MGSDKIHHHHHHMVSRRISEIPISKTMELDAKAKALIKKGEDVINLTAGEPDFPTPEPVVEEAVRFLQKGEVKYTDPRGIYELREGIAKRIGERYKKDISPDQVVVTNGAKQALFNAFMALLDPGDEVIVFSPVWVSYIPQIILAGGTVNVVETFMSKNFQPSLEEVEGLLVGKTKAVLINSPNNPTGVVYRREFLEGLVRLAKKRNFYIISDEVYDSLVYTDEFTSILDVSEGFDRIVYINGFSKSHSMTGWRVGYLISSEKVATAVSKIQSHTTSCINTVAQYAALKALEVDNSYMVQTFKERKNFVVERLKKMGVKFVEPEGAFYLFFKVRGDDVKFCERLLEEKKVALVPGSAFLKPGFVRLSFATSIERLTEALDRIEDFLNSR	soluble
MGSDKIHHHHHHMVTIQNDRFTATINEVGAELTHLVDQASHRDLIWNNDLWPKHAPVLFPAIGRSNEDSYLIDGQRYEMPQHGFVSGETFMIVDQTPTAVTLSLTANAATRVYYPFYFELQVTFTLVATGLNLTFSVQNHGQQDLSYSLGSHPAFNVPFEAGEAFTDYELVLDPAPTDLQQFEIVKTPNPYRSGKELPVTTDKGVIKLNYPMFDAGLIILKAPNLAHLTLQSTKSKHSISLNLDDFDYVTLWTKEGAQAPFLCLEPFNGLPDVAGDLRELATKEGNHHVAVGQSETMAYTITVD	not soluble
MGSDKIHHHHHHMVTIVPINEEERASIINGLKSSVPATKLITLKKIVDLTVLRPESLQYMEMTDKMAIQRIVSGIERIMEYDIDEVLKREASIALEKLKVTLGSKFVQNLFYCQNCNGVVDIGWENCANCGASLAEMEFAETKPCPNCNKHTSENWNNCAHCGFQLIKEEDKIQKCSGCKREVDPTWMVCPYCGTRLKVSKK	not soluble
MGSDKIHHHHHHMVVASVVLWGKHVGAVLWNYDKGYATFEFEAGFLKSGLDVAPLTMPLANVSKGEIFQFAQLPKETFHGLPGLLSDALPDRFGNQLIDLWLASQGRDKASMSPVERLCYLGTRGMGALEFEPTVRNEKEPSKGLEIGALVELSKKALSMKASLDSHFSKEDAETFADIIKVGTSAGGARAKAVIAYNEQTGEVRSGQLHSPAGFEHWLIKFDGVTNEQLGDPKGYGRIEYAYYKMAIDADIIMMPSLLLEEGGRAHFMTKRFDRIVNNEKLHMQTLCGLCHFDYNNPEAYAYEQAFQAMRQLRLPYTDAEQLYIRMVFNVVARNQDDHTKNISFLMDKTGNWSLSPAYDVSYAYNPENKWIAKHQLAVNGKRENIMREDLLSVAKQMNIKKPKEIIEKITAVVSNWEGYAQEAGVPKNQITALGKTHLLKM	not soluble
MGSDKIHHHHHHMVVKIGLLGFGTVASGVPFLLEENQEKIEKAAHDSIEVAKVLVKDEAEKDRLLAAGHDYHFVTNIDDILADEDIAIVVELMGRIEPAKTFITHALEAGKHIVTANKDLLAVHGSELRALAEEKGLALYYEAAVAGGIPILRTLVNSLAADKVTRILGVLNGTSNFMLTKMVDEGWTYEKALQTAQELGYAESDPTNDVEGIDAAYKAVILSQFAFGMTVDFEHVAHKGISNITPEDVAVAQELGYVIKLVGDIQETTSGIAAEVSPTFLPKNHPLASVNGVMNAVFVESIGIGQSMYYGPGAGQKPTATSVMADIIRIVRRLKDNTIGKAFNEYSRSLQLAAPSDVKSEYYFSIDAPDKNGKMLRLAEIFNSEEISFKQILQQAADGETARLVIVTHEMSKTQLENVTDKLSKETDFTVLNTFKVLGE	not soluble
MGSDKIHHHHHHMYEEWKIVKREAPILGNDQLIENIWKMKREDSPYDIISLHKVNLIGGGNDAVLILPGTWSSGEQLVTISWNGVHYTIPDYRKSIVLYLARNGFNVYTIDYRTHYVPPFLKDRQLSFTANWGWSTWISDIKEVVSFIKRDSGQERIYLAGESFGGIAALNYSSLYWKNDIKGLILLDGGPTKHGIRPKFYTPEVNSIEEMEAKGIYVIPSRGGPNNPIWSYALANPDMPSPDPKYKSISDFLMDSLYVTGSANPYDYPYSKKEDMFPILASFDPYWPYRLSLERDLKFDYEGILVPTIAFVSERFGIQIFDSKILPSNSEIILLKGYGHLDVYTGENSEKDVNSVVLKWLSQQR	not soluble
MGSDKIHHHHHHMYKVIIIDDEKAAIETLRRDLEVQTDLEIKGTAGNGAKGKKLIMDIHPDLLFLDIELPDIQGIRLLSEIREQVLWDMKVVFYTAYDKYLLQALRESAFDYLLKPYDIEELNLIIERYRKTMASARPLPSFASAVGTLMPGRDLFMISTVTGFRFLRLEEIGYFEYLKDKRLWQVELFNQTKLCLKKNTTAGDIIGYSDAFVQISQSAIININYLAMIKSKQCLLYPPFSDKEDLIISRGFLKELQERFCII	not soluble
MGSDKIHHHHHHMYNYPFENFDFIDFWDDDEYAMNEYIGAPPTEEMIEETERELGYKLPESYIWLMKQHNGGIPFNVCFPCDEPTSWADDHVAITGIMGVDKDKIYSLCGQLGSRFMIEEWGYPDIGVAICDCPSVGHDMIFLDYRECGPQGEPKVVHVDQEDDYYVTFLADNFEEFIRGLVNEEVFDTSEEDERMELEKVRNAAFSPLLSDLCAKCDHPVDTERWIRKISEEIVTDKGFFALHADERSYLLYDIQLWLYTNVYPDTTEEDYLSAYKKIIALDGEFSTGGYASDFVTDWLTRRKESGMVTCNDGILSMAAGTKEALLANRELISNKEQ	not soluble
MGSDKIHHHHHHMYQQVIDFIEHQKKIGALHPGDKLPSLRKLSRQFDISVPTVKQAYIELERQGQVCAKPQSGYYLQAMQARTLKPRPAKWAQCDPVEVQGRSMIEQVHAAVHLPNTVALGISNPIQAHPPDKALARLMRSVLSKVSEKAVSYGPVTGDAKLRMQLAFRYQDQGVETNPDDIVITNGAQEALSIALQCVAKRGDIIAIESPCFFGMIELIETLGMKALEVYTCTEDGVCVEDLAEAINQHDITACLFSTAINNPLGSMKTDEQRQAMVSLLEQHDIPLIEDEVYSEIYFTDNKPKPAQLYSEKGLVMTCSSFSKTAAPGYRIGWLLPGKFEEQAKRIKRAQSASTPMLQQWTLNEYLLSGDYDRHLCVLRKTLAYNCERMRALIAEHFPPEVCISKPLGGSVLWLRCQSHVKTGEFFQQALTQGVSFAPGAIFSPSGKYQNYMRVSYGVQWGEDVETAVKVLGQLVYEYTSKQKTAQLMEKQ	not soluble
MGSDKIHHHHHHMYRLSQYETPLFTALVEHSKRNPIQFHIPGHKKGQGMDPEFREFIGHNALAIDLINIAPLDDLHHPKGMIKEAQDLAAAAFGADHTFFSIQGTSGAIMTMVMSVCGPGDKILVPRNVHKSVMSAIIFSGAKPIFMHPEIDPKLGISHGITIQSVKKALEEHSDAKGLLVINPTYFGFAADLEQIVQLAHSYDIPVLVDEAHGVHIHFHDELPMSAMQAGADMAATSVHKLGGSLTQSSILNVKEGLVNVKHVQSIISMLTTTSTSYILLASLDVARKRLATEGTALIEQTIQLAEQVRDAINDIEHLYCPGKEMLGTDATFNYDPTKIIVSVKDLGITGHQAEVWLREQYNIEVELSDLYNILCLVTFGDTESETNTLIAALQDLSATFKNKADKGVQVQVEIPEIPVLALSPRDAFYSETEVIPFENAAGRIIADFVMVYPPGIPIFTPGEIITQDNLEYIRKNLEAGLPVQGPEDMTLQTLRVIKEYKPIS	not soluble
